Test results: patent US11130803B2, “Isoform-selective TGFβ1 inhibitors and use thereof” (Scholar Rock, Inc., priority 2018, dated 2021)
Positions count from the first letter of the chain named. Where two headings read alike, the source gives them in different places.

B1: Ab33: monoclonal antibody; VH SEQ ID NO: 141, VL SEQ ID NO: 15 (antibody, V domains shown)
VH: EVQLVESGGGLVQPGGSLRLSCAASGFTFSSFSMNWVRQAPGKGLEWVSYISPSADTIYYADSVKGRFTISRDNAKNTLYLQMNSLRAEDTAVYYCAHGVLDYGDMLDPWGQGTLVTVSS
VL: DIQMTQSPSSLSASVGDRVTITCQASQDITNYLNWYQQKPGKAPKLLIYDASNLETGVPSRFSGSGSGTDFTFTISSLQPEDIATYYCQQADNHPPWTFGGGTKVEIK
B2: Ab12: monoclonal antibody; VH SEQ ID NO: 237, VL SEQ ID NO: 241 (antibody, V domains shown)
VH: QVQLVESGGGVVQPGRSLRLSCAASGFTFSDYAMVWVRQAPGKGLEWVSAISGSGFTTYYADSVKGRFTISRDNSKNTLYLQMNSLRAEDTAVYYCARVSSGHWDFDYWGQGTLVTVSS
VL: DIQLTQSPSSLSASVGDRVTITCRASQSISSYLNWYQQKPGKAPKLLIYAASNLQSGVPSRFSGSGSGTDFTLTISSLQPEDFATYYCQQTYTVPLTFGGGTKVEIK
B3: Ab19: monoclonal antibody; VH SEQ ID NO: 250, VL SEQ ID NO: 241 (antibody, V domains shown)
VH: B2 VH with D31S, Y32F, V35T, F56A, T57A, Y60F, Y108E
VL: B2 VL

Columns and labels:
[1] = system: matrix-associated (LTBP1/LTBP3) and cell-associated (GARP/LRRC33) proTGFβ1 complexes; experiment: Octet: average KD and fold bias, matrix- vs cell-associated complexes; format: binding, human; details: for Kd: average KD of (E) and (F), cell-associated complexes, read-out: (G) Cell AVRG; for (H) G/D (fold bias): ratio of average KD cell-associated / matrix-associated
In short: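 Monoclonal antibodies were measured for binding affinity, expressed as KD, to cell-surface or cell-associated proTGFβ1 complexes (GARP and LRRC33). The KD values for the two complexes were averaged to give one value for cell-associated affinity. That average was then divided by the matrix-associated average to express fold bias between the complex types.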

hGARP-proTGFβ1 = molecular target: T1, hGARP-proTGFβ1 (Homo sapiens, UniProt P01137); experiment: MSD-SET solution equilibrium titration binding; details: MSD-SET at equilibrium, hIgG4, human complex; in M
T1 construct: made in house
T1 sequence (P01137 30-390): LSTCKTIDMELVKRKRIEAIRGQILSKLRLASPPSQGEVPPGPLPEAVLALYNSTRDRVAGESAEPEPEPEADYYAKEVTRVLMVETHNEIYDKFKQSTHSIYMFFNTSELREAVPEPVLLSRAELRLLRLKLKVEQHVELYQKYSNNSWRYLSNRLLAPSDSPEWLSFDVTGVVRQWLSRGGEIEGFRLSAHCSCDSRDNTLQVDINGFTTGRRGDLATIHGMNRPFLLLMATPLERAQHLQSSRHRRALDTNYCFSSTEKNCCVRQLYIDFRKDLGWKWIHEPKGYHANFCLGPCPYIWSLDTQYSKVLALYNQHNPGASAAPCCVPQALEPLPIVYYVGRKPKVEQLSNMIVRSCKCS
T1 sequence (Q14392 20-627 partner limits assumed): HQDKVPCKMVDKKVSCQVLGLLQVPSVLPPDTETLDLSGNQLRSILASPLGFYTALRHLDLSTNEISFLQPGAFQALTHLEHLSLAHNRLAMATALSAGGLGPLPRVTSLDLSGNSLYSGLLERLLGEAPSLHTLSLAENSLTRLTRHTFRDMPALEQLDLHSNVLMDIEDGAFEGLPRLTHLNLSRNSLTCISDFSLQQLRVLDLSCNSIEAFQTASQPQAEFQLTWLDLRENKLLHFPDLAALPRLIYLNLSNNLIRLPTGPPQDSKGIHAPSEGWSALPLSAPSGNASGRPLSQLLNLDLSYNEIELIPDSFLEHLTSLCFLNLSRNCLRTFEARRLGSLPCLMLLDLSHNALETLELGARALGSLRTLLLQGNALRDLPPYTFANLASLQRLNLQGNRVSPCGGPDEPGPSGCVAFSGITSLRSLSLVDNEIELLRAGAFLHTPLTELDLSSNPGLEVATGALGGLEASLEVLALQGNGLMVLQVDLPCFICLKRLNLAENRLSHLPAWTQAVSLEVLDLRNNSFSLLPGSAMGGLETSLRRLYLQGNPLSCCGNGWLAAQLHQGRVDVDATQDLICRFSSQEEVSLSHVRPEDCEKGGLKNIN
From the text: (§1) Solution Equilibrium Titration (SET): The SET is an assay whereby binding between two molecules (such as an antigen and an antibody that binds the antigen) can be measured at equilibrium in a solution. For example, Meso-Scale Discovery (“MSD”)-based SET, or MSD-SET, is a useful mode of determining dissociation constants for particularly high-affinity protein-protein interactions at equilibrium, such as picomolar-affinity antibodies binding to their antigens (see, for example: Ducata et al. (2015) J Biomolecular Screening 20(10): 1256-1267). The SET-based assays are particularly useful for determining KD values of antibodies with sub-nanomolar (e.g., picomolar) affinities.
(§2) In view of this, it is contemplated that assays that measure binding affinities of such antibodies at equilibrium may more accurately represent the mode of target engagement in vivo. Thus, MSD-SET-based binding assays (or other suitable assays) may be performed, as exemplified in Table 9 below.
(§3) Solution equilibrium titration (“SET”) is an assay whereby binding between two molecules (such as an antigen and an antibody that binds the antigen) can be measured at equilibrium in a solution. For example, Meso-Scale Discovery (“MSD”)-based SET, or MSD-SET, is a useful mode of determining dissociation constants for particularly high-affinity protein-protein interactions at equilibrium (see, for example: Ducata et al. (2015) J Biomolecular Screening 20(10): 1256-1267). The SET-based assays are particularly useful for determining KD values of antibodies with sub-nanomolar (e.g., picomolar) affinities.
(§4) For solution equilibrium titration-based binding assays, protein complexes that comprise one of the presenting molecules such as those shown above may be employed as antigen (presenting molecule-TGFβ1 complex, or an LLC). Test antibodies are allowed to form antigen-antibody complex in solution. Antigen-antibody reaction mixtures are incubated to allow an equilibrium to be reached; the amount of the antigen-antibody complex present in the assay reactions can be measured by suitable means well known in the art. As compared to BLI-based assays, SET-based assays are less affected by on/off rates of the antigen-antibody complex, allowing sensitive detection of very high affinity interactions.

hLRRC33-proTGFβ1 = molecular target: T2, hLRRC33-proTGFβ1 (Homo sapiens, UniProt P01137); experiment: MSD-SET solution equilibrium titration binding; details: MSD-SET at equilibrium, hIgG4, human complex; in M
T2 construct: made in house
T2 sequence (P01137 30-390): as the sequence (P01137 30-390) above
T2 sequence (Q86YC3 19-650 partner limits assumed): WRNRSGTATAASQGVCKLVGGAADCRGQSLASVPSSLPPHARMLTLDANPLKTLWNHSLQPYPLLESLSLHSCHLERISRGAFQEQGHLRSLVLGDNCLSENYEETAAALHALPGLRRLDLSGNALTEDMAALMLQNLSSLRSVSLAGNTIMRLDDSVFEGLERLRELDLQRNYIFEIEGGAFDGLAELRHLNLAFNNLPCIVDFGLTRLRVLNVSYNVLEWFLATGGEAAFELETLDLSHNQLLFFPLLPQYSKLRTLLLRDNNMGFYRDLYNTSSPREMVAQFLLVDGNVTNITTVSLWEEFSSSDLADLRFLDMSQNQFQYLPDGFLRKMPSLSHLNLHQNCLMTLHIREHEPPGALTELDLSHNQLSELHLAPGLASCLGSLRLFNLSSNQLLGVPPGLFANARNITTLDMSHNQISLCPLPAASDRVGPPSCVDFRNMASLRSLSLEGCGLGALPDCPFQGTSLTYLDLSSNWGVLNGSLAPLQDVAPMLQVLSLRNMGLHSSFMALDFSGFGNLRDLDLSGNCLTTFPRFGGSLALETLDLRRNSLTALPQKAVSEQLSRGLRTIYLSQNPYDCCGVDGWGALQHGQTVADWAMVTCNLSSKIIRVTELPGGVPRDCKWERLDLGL
From the text: as §1, §2, §3, §4

hLTBP1-proTGFβ1 = molecular target: T3, hLTBP1-proTGFβ1 (Homo sapiens, UniProt P01137); experiment: MSD-SET solution equilibrium titration binding; details: MSD-SET at equilibrium, hIgG4, human complex; in M
T3 construct: made in house; host or cells: Expi293F cells, transient co-transfection
T3 sequence (P01137 30-390): as the sequence (P01137 30-390) above
T3 sequence (Q14766 873-1507 partner): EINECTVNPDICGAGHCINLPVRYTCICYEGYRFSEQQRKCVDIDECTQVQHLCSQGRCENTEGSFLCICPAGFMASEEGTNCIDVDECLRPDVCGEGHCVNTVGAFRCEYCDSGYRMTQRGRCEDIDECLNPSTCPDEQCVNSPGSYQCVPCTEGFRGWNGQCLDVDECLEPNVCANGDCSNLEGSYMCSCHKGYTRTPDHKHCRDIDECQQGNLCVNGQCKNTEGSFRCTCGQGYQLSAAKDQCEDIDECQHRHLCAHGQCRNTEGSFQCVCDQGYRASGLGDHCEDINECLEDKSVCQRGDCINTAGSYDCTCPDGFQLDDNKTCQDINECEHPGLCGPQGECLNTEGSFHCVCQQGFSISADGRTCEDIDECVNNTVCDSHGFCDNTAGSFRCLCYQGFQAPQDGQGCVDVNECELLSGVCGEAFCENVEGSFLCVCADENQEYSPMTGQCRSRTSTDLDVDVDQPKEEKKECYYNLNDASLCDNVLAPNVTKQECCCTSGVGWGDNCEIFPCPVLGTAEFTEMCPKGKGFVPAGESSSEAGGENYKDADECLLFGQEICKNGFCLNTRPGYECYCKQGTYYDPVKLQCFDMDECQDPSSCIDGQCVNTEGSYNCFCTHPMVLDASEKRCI
From the text: as §1, §2, §3, §4

hLTBP3-proTGFβ1 = molecular target: T4, hLTBP3-proTGFβ1 (Homo sapiens, UniProt P01137); experiment: MSD-SET solution equilibrium titration binding; details: MSD-SET at equilibrium, hIgG4, human complex; in M
T4 construct: made in house; host or cells: Expi293F cells, transient co-transfection
T4 sequence (P01137 30-390): as the sequence (P01137 30-390) above
T4 sequence (Q9NS15 866-1039 partner limits assumed): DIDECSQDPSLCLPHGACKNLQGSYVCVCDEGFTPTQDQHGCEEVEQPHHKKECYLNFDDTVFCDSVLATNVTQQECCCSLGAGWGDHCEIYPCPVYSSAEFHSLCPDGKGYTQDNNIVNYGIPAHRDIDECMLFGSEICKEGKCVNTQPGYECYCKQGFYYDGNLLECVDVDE
From the text: as §1, §2, §3, §4

[2] = system: hLTBP1-/hLTBP3-proTGFβ1 vs hGARP-/hLRRC33-proTGFβ1 complexes; experiment: Solution equilibrium titration: relative affinity (bias) LTBP complexes vs cell-associated complexes; format: binding, human; details: MSD-SET; for (H) G/D (fold bias): ratio of average KD cell-associated / matrix-associated
From the text: Context-biased: As used herein, “context-biased antibodies” refer to a type of conformational antibodies that binds an antigen with differential affinities when the antigen is associated with (i.e., bound to or attached to) an interacting protein or a fragment thereof. Thus, a context-biased antibody that specifically binds an epitope within proTGFβ1 may bind LTBP1-proTGFβ1, LTBP3-proTGFβ1, GARP-proTGFβ1 and LRRC33-proTGFβ1 with different affinities. […] Relative affinities of [matrix-associated complexes]: [cell-associated complexes] may be obtained by taking average KD values of the former, taking average KD values of the latter, and calculating the ratio of the two, as exemplified herein.
In a yet further aspect, the present disclosure provides context-biased TGFβ1 inhibitors. The context-biased antibodies include LTBP-biased antibodies with higher affinities for ECM-associated LLCs than for cell-associated LLCs wherein the affinities are measured at equilibrium.

[3] = system: matrix-associated (LTBP1/LTBP3) and cell-associated (GARP/LRRC33) proTGFβ1 complexes; experiment: Octet: average KD and fold bias, matrix- vs cell-associated complexes; format: binding, human; details: average KD of (B) and (C), read-out: (D) ECM AVRG
[4] = average KD of (B) and (C), read-out: (D) ECM AVRG
[5] = average KD of (E) and (F), read-out: (G) Cell AVRG

| Molecule | Kd [1] [nM] | (H) G/D (fold bias) [1] [fold] | (E) hGARP, Cell-associated proTGFβ1 KD (hGARP-proTGFβ1) | (F) hLRRC33, Cell-associated proTGFβ1 KD (hLRRC33-proTGFβ1) | (B) hLTBP1, Matrix-associated proTGFβ1 KD (hLTBP1-proTGFβ1) | (C) hLTBP3, Matrix-associated proTGFβ1 KD (hLTBP3-proTGFβ1) | Kd [2, 4] [nM] | Kd [2, 5] [nM] | (H) G/D (fold bias) [2] [fold] | Kd [3] [nM] |
| --- | --- | --- | --- | --- | --- | --- | --- | --- | --- | --- |
| B1 | 0.302 | 2.083 | 7.80E−12 | 4.60E−11 | 1.10E−11 | 7.00E−12 | 0.009 | 0.027 | 3.00 | 0.145 |
| B2 | 3.89 | 22.897 | 1.70E−09 | 3.20E−09 | 7.80E−10 | 6.60E−10 | 0.72 | 2.45 | 3.40 | 0.17 |
| B3 | 5.95 | 34.47 | 3.80E−09 | 5.70E−09 | 2.10E−09 | 2.70E−09 | 2.83 | 4.75 | 1.68 | 0.172 |
